Where two headings read alike, the source gives them in different places.
Key:
Human HER3 ECD domain II [1] = target: T1, Human HER3 ECD domain II (human, UniProt P21860 184-329); test: DELFIA (europium time-resolved fluorescence), plate coated with HER3 Domain II 1ug/ml, antibody titrated 0.001-10 ug/ml
T1 construct: also called D2; Domain 2

[2] = target: T2, Human HER3 ECD domain III (human, UniProt P21860 330-495); test: DELFIA, plate coated with HER3 Domain III 1ug/ml
T2 construct: also called D3; Domain 3
Experimental: (§1) Dissociation Enhanced Lanthanide Fluorescence Immunoassay (DELFIA) for detection of the anti-HER3 antibodies to HER3 extracellular domain (ECD) was used. The DELFIA procedures were as follows: white Maxisorp 96-well plates (Nunc #437796) were coated with 100 ul/well of 1 ug/ml HER-3 ECD full length or HER3Domain I, II, III and IV in 0.1M carbonate buffer pH 9.5 overnight at 4° C. These plates were blocked with casein in TBS (Thermo Scientific #37532 lot#JD121074). The neat hybridoma supernatant, or the purified anti-HER3 antibodies diluted in Perkin Elmer #4002-0010 Assay Buffer from 10 ug/ml (or 100 ug/ml) to 0.01 ug/ml, or the PK serum samples with a minimum of 3 dilutions (100 ul/well) were added to the plate. These samples were incubated for 2 hours at room temperature while on a plate shaker or overnight at 4° C. […] The plate was washed 4 times with tris-buffer plus 0.05% tween-20 (Perkin Elmer #4010-0010) on a BIOTEK™ plate washer following each antibody incubation step. 100 ul/well of DELFIA enhancement solution (Perkin Elmer 1244-105) was added for 5 minutes at room temperature. […] Antibody binding was recorded as europium counts per well.

Human HER3 receptor [3] = target: T3, Human HER3 receptor (human, UniProt P21860 20-1342); test: cell-based or functional assay
[4] = target: T4, Human HER3 ECD domain 2-3 protein (human, UniProt P21860 184-495); test: BIACORE 2000 SPR, mAb captured, HER3 protein as analyte, 25 C
T4 construct: also called D2-3; sub-domains 2-3
Experimental: (§2) Mouse monoclonal antibodies were analysed using rabbit anti-mouse (RAM) IgG (GE Healthcare BR-1008-38) covalently coupled to a BIACORE™ CM5 chip (GE HEalthcare BR-1000-14) by primary amine chemistry (NHS/EDC activated) (GE Healthcare amine coupling kit BR-1000-50). Chimeric and humanized competitor monoclonal antibodies were analyzed using anti-human, Fc specific monoclonal (GE Healthcare BR-1008-39) similarly coupled. Each chip was also prepared with a reference surface to which no capture reagent antibody is coupled. Sensorgrams for cycles run with differing analyte concentrations are acquired for kinetic analysis. A cycle consists of capturing the monoclonal on the surface, a short stabilization period with flowing run buffer followed by binding of a defined concentration of analyte (ECD or sub-domain protein). Injection of analyte for surface binding (3-4 minutes) yields the association part of curve. This is followed by buffer only flow (3-4 minutes) which allows recording of dissociation data.
(§3) The general method for affinity analysis is as follows. First, chips were prepared and tested for reasonance units (RU) captured for several monoclonal antibody concentrations. Kinetic cycles were then run in which monoclonal antibody was captured to a level of approximately 100RU, analyte protein was allowed to bind then dissociate and the surface was regenerated to remove all but covalently coupled protein. RAM chips were regenerated with capture kit supplied 100 mM glycine pH1.7 and anti-human chips with capture kit supplied 3M MgCl₂. […] Several buffer cycles were run prior to analyte protein to ensure cycle consistency and in some experiments a buffer cycle is used a “double reference[.]” Analytes used were human full length HER3 extra cellular domain (ECD), separate sub-domains of the extracellular portion of human HER3 (D1, D2, D3, D4), or combination HER3 domain proteins (D1-2 and D2-3).

[5] = target: T5, Full-length human HER3 extracellular domain (ECD) (human, UniProt P21860 20-643); test: as above
T5 construct: also called human HER3 ECD; HER-3 ECD full length
Experimental: as §2, §3

[6] = target: T6, Human HER3 ECD domain 1-2 protein (human, UniProt P21860 20-329); test: as above
T6 construct: also called D1-2; sub-domains 1-2
Experimental: as §2, §3

Human HER3 ECD domain II [7] = target: T1, Human HER3 ECD domain II; test: as above
Experimental: as §2, §3

Human HER3 ECD domain I = target: T7, Human HER3 ECD domain I (human, UniProt P21860 20-183); test: DELFIA, plate coated with HER3 Domain I 1ug/ml
T7 construct: also called D1; sub-domain 1
Experimental: as §1

Human HER3 ECD domain IV = target: T8, Human HER3 ECD domain IV (human, UniProt P21860 496-643); test: DELFIA, plate coated with HER3 Domain IV 1ug/ml
T8 construct: also called D4; sub-domain 4
Experimental: as §1

[8] = target: T5, Full-length human HER3 extracellular …; test: affinity summary table, method not given
Human HER3 ECD domain II [9] = target: T1, Human HER3 ECD domain II; test: affinity summary table, method not given
Human HER3 receptor [10] = target: T3, Human HER3 receptor; test: cell-based or functional assay; remark: listed apart in the source
Human HER3 receptor [11] = target: T3, Human HER3 receptor; test: cell-based or functional assay; remark: listed apart in the source
Human HER3 receptor [12] = target: T3, Human HER3 receptor; test: cell-based or functional assay; remark: listed apart in the source
[13] = target: T9, Murine HER3 on B16 and B16F10 melanoma cells (murine, UniProt Q61526 20-1339); test: flow cytometry on B16F10 murine melanoma cells, antibody labelled with a Zenon APC kit [c]
T9 construct: whole, on cells
From the text: B16F10 ZENON™ labeling kits: [0530] Mouse IgG1 PE—Invitrogen Z25021 [0531] Mouse IgG1 APC—Invitrogen Z25051 [0532] Mouse IgG2b APC—Invitrogen Z25151 Method: Commercially available anti-human EGFR and HER2 antibodies were provided. A commercially available HER3 antibody represented by the provider to recognizes human HER3 was provided. The murine 15D5 antibody, murine 1D9 antibody (M5.1D9.1F5), murine 24H5 antibody (M5.24H5.C2) antibodies were also provided. These antibodies were labeled with either PE or APC using the ZENON™ labeling kits (Invitrogen). 5×10⁶ B 16, or B16F10, murine melanoma cells were added to flow cytometry tubes containing the labeled anti-HER3 antibodies. Cells and antibodies were incubated for 30 minutes on ice in the dark, washed and resuspended in FACS buffer. Cells were then analyzed on a FACSCANTO™ flow cytometer. Data analysis was performed using […]™ software, developed by BD Biosciences. Cell populations were gated using forward vs. side scatter and histograms of fluorescent intensities were generated.

T3 sequence (P21860 20-1342 limits assumed): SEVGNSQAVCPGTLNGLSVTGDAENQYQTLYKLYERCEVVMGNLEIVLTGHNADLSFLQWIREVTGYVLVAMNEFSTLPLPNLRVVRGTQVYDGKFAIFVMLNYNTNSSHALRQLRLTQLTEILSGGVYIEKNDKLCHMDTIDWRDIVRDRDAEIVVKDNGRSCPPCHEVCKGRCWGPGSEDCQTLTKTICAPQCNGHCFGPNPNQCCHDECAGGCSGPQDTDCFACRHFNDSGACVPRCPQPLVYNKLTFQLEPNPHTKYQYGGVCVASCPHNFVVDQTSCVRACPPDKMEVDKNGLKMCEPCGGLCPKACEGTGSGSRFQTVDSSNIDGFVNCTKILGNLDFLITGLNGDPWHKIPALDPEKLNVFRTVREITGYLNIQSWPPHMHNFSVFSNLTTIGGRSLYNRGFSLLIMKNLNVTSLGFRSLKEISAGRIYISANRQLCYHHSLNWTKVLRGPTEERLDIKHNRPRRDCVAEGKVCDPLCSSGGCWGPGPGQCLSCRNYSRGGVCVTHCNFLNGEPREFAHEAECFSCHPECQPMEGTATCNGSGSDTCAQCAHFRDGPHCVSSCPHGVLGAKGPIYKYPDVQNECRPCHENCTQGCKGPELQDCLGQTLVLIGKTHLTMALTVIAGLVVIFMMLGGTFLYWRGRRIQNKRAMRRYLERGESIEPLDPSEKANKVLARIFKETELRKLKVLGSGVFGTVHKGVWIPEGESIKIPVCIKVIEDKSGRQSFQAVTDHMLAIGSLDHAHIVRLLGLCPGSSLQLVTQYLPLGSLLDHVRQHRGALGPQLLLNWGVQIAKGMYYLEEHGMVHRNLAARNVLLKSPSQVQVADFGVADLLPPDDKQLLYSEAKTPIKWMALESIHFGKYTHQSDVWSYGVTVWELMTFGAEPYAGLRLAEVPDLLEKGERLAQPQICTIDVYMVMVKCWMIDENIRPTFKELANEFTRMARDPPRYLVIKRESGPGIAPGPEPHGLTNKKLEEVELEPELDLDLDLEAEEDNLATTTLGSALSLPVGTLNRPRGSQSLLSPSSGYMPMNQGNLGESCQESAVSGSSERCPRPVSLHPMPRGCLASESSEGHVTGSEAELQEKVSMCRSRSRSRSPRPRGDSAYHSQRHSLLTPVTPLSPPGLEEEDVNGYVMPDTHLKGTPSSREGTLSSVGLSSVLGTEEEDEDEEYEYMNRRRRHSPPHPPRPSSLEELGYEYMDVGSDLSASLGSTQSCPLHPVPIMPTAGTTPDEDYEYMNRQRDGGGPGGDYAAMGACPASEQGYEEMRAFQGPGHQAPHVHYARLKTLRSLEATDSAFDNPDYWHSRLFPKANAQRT
T5 sequence (P21860 20-643): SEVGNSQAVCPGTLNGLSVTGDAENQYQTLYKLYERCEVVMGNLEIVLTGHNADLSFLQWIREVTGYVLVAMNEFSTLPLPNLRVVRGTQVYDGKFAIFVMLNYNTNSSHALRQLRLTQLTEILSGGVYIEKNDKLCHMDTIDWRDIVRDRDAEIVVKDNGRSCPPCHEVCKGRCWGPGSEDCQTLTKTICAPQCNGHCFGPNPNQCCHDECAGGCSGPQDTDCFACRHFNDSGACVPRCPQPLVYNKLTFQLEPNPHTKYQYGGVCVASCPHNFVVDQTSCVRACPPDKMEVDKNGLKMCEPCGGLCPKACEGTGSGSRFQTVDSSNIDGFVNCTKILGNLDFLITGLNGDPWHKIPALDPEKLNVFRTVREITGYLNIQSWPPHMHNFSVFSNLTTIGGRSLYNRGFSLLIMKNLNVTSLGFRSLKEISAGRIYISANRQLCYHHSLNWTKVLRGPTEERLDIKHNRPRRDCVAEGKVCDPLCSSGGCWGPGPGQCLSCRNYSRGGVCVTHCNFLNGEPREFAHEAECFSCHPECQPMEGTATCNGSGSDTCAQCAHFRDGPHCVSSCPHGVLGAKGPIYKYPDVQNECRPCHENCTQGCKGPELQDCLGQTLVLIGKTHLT
T1 sequence (P21860 184-329): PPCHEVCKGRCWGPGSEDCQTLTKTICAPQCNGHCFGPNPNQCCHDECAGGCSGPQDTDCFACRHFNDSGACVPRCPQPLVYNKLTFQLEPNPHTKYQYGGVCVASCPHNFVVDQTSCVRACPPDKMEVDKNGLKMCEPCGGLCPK
T6 sequence (P21860 20-329): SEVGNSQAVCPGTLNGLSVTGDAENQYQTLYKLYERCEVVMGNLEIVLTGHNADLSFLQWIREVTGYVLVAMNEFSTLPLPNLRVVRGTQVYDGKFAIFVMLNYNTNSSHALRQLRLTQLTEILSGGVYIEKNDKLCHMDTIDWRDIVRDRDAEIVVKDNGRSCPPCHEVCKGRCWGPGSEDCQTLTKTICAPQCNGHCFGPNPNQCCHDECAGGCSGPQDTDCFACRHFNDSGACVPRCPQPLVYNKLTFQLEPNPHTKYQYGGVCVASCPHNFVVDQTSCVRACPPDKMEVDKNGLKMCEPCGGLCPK
T4 sequence (P21860 184-495): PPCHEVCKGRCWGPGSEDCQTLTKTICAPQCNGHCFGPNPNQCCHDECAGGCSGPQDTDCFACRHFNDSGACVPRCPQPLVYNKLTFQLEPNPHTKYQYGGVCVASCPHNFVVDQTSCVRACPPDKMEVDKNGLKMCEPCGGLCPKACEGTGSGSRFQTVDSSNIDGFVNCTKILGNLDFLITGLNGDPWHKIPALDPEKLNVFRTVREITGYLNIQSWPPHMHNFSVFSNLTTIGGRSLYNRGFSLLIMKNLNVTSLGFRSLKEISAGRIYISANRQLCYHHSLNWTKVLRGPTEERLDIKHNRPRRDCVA
T2 sequence (P21860 330-495): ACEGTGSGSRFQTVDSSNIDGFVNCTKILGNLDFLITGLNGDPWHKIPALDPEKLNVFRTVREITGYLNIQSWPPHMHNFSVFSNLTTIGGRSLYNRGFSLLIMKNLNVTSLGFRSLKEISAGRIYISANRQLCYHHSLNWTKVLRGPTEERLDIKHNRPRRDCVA
T7 sequence (P21860 20-183): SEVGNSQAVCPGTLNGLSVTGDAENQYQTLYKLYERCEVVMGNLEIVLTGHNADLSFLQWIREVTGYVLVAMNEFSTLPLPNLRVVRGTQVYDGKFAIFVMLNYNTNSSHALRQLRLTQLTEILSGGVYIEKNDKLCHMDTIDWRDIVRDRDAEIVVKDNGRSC
T8 sequence (P21860 496-643): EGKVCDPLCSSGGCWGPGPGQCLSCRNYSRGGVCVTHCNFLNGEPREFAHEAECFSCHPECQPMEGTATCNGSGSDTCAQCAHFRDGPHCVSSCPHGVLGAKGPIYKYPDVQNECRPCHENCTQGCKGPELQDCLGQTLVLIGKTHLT
T9 sequence (Q61526 20-1339, one chain of several): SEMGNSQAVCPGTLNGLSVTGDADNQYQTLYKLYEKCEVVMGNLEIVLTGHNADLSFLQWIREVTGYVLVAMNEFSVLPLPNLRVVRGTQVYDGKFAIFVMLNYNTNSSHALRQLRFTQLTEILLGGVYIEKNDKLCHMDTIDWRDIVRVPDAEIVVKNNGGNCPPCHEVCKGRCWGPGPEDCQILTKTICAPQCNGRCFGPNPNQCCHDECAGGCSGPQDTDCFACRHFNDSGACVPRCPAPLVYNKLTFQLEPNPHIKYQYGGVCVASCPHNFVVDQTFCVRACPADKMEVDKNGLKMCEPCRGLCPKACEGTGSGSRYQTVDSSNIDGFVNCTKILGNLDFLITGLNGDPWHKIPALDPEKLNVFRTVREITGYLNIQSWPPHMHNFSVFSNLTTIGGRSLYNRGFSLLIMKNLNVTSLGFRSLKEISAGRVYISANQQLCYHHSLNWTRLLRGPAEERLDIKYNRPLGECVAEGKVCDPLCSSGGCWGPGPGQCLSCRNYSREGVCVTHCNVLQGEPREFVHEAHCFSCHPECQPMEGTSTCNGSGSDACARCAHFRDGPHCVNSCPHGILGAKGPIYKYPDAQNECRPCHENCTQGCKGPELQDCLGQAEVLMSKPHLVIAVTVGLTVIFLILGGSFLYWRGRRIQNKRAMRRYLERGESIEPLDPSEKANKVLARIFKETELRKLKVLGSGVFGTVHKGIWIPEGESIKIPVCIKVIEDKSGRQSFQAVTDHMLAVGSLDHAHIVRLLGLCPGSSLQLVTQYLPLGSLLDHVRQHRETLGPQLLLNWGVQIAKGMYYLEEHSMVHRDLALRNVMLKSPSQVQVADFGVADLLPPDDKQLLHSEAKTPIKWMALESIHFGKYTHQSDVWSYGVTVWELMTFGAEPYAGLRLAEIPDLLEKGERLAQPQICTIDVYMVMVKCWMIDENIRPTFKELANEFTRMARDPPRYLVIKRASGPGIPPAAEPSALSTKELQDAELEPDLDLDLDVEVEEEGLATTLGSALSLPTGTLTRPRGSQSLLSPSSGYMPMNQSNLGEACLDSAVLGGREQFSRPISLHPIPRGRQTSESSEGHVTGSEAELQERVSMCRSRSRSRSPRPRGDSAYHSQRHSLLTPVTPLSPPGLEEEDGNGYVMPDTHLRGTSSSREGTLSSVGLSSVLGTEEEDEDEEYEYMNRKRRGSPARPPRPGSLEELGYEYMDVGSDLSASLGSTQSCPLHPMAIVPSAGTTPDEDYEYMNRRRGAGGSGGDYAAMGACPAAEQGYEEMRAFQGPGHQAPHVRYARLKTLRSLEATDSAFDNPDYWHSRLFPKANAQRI

EC50 (read off the curve) (Human HER3 ECD domain II [1]): ~0.2 µg/mL
binding result [2]: no binding (tested: 10 ug/ml)
Phospho-AKT ELISA IC50, heregulin induced, BxPC3 cells (Human HER3 receptor [3]): 0.0605 µg/mL
Kd [4]: 0.06 nM
kon [4]: 1.4e+06 M⁻¹ s⁻¹
Kd [5]: 2.32 nM
kon [5]: 41200 M⁻¹ s⁻¹
Kd [6]: 0.17 nM
kon [6]: 345000 M⁻¹ s⁻¹
Kd (Human HER3 ECD domain II [7]): 0.07 nM
kon (Human HER3 ECD domain II [7]): 1.76e+06 M⁻¹ s⁻¹
binding result (Human HER3 ECD domain I): no binding (tested: 10 ug/ml)
binding result (Human HER3 ECD domain IV): no binding (tested: 10 ug/ml)
Kd [8]: ~2 nM
Kd (Human HER3 ECD domain II [9]): 0.07 nM
Phospho-HER3 ELISA IC50, heregulin induced, BT-474 cells (Human HER3 receptor [10]): 0.12 µg/mL
Phospho-HER3 ELISA IC50, heregulin induced, BxPC3 cells (Human HER3 receptor [10]): 0.0541 µg/mL
Phospho-HER3 ELISA IC50, heregulin induced, CHL-1 cells (Human HER3 receptor [10]): 0.138 µg/mL
Phospho-HER3 ELISA IC50, heregulin induced, MCF7 cells (Human HER3 receptor [10]): 0.0593 µg/mL
Phospho-HER3 ELISA IC50, heregulin induced, N87 cells (Human HER3 receptor [10]): 0.0533 µg/mL
Phospho-HER3 ELISA IC50, heregulin induced, SK-BR-3 cells (Human HER3 receptor [10]): 0.0191 µg/mL
Phospho-HER3 ELISA IC50, betacellulin induced, SK-BR-3 cells (Human HER3 receptor [11]): 0.0368 µg/mL
Phospho-HER3 ELISA IC50, epidermal growth factor induced, SK-BR-3 cells (Human HER3 receptor [11]): 0.0233 µg/mL
Phospho-HER3 ELISA IC50, heregulin induced, SK-BR-3 cells (Human HER3 receptor [11]): 0.0191 µg/mL
Phospho-HER3 … IC50, heregulin induced, CHO EGFR + HER3 (Human HER3 receptor [12]): 0.103 µg/mL
Phospho-HER3 … IC50, heregulin induced, CHO HER4 + HER3 (Human HER3 receptor [12]): 0.141 µg/mL
binding result [13]: binds
B1: Murine 15D5 antibody (M5.15D5.2A1.1H10) (antibody, IgG1, V domains shown)
VH: EFQLQQSGPELVKPGASVKISCKASGYSFTDYNMNWVKQNNGKSLEWIGGINPNYGTTVYNQKFKGKATLTVDQSSSTAYMQLVSLTSEDSAVYYCARMTTIVPFDYWGQGTTLTVSS
VL: DIQMTQTTFSLSASLGDRVTISCRASQDISNYLNWYQQKPDGTVKLLIYYTSTLHSGVPSRFSGSGSGTDYFLTIRNLEEEDIATYFCQQGYTLPWTFGGGTKLDIK
notes: Mouse monoclonal, IgG1; also called m15D5; M5.15D5.1C1
